Here are results for 20 sequences from a protein production outcome set (Wang et al. 2014).

This data set is described as follows: label from the status in PepcDB records.

Turning to “MTDNETPAEDQVGDRVAGLLLAAGGGRRLGGRPKALLEHRGHPLVEHAVEVLRTAGCARVHVVLGARAADVRARAALDGCTLVDNPDWEQGMGSSLRAGLGSLAATGARAALVCLVDQPGIGAAATARVRARFRDETSLASAAYAGVRGHPVLLGAAHWAGVAATASGDRGARAYLREHEAEIALVECGDVARPYDIDTEADLVHLELEHHHHHH”, the protein production entry was “not failed”.

Take “MTDNTRLRIAMQKSGRLSDDSRELLARCGIKINLHTQRLIAMAENMPIDILRVRDDDIPGLVMDGVVDLGIIGENVLEEELLNRRAQGEDPRYFTLRRLDFGGCRLSLATPVDEAWDGPLSLNGKRIATSYPHLLKRYLDQKGISFKSCLLNGSVEVAPRAGLADAICDLVSTGATLEANGLREVEVIYRSKACLIQRDGEMEESKQQLIDKLLTRIQGVIQARESKYIMMHAPTERLDEVIALLPGAERPTILPLAGDQQRVAMHMVSSETLFWETMEKLKALGASSILVLPIEKMME”: the protein production result is on record as “not failed”.

For the sequence “MTDPVFFAPSRRYTAAEVANLTGSVLVDSGQSDVSIEALAPASEGGANALVFVDGRRNSALMPSLRAAAVLCPAEFANKAPSSVAVLIHPRPQQAFALVGRLLFPTAATPGPMTSETGVSAHAHIDPTAHVEAGAIIEAGVVIGPGVSIGSGTVIAPNAVIGQSCQIGRDGYVGPGASIQYALIGNRVIIHGGARIGQDGFGFVGGAKGPERVPQIGRVVIQDDVEIGSNSTVDRGAMSDTIIGQGTKIDNLVQIAHNVRIGRNCIVAGLSGISGSVVVGDNVTMGGGVGLADHLTIGSGAKLAARSGFMSNVPAGEIWGGYPAQPMAEAMREIAMLRTMARARKQGKDNG”, the protein production result was “failed”.

Take “MTDRQLIVLAALNIMVAVGAGAFGAHGLRRVVDPTLLAIWHTGVLYHLIHALGLFVVALLGARFGSPLLSMAGLVMFIGILLFCGSLYVLVLTGTRWLGAVTPLGGVAFLAAWAMVAWAAWRAPA”: the protein production entry is “failed”.

Regarding “MTDRSEDADGEPAPEDAAGLDDDALDHEFSEGAGFDDPYAGFDLDPPELDVDPDTVDPVDSRVVADTLDERTLDNDAVDADELIDVGLSYMGINRNEQAVDTFERAAQYTDDDNREQEAWVNKGIAHGELEEWDAAVGAHREALFVADDGDFEAAAHTNLAYALWEFGEDEQAYEHAEEAVRVDKRLPQAWYNLGFIENERDRPEQALDALDNAIRLGFQQADVYEEKTRALEALGRDEEAAKVAEQADEIRSQQERELVDER”, the protein production result is recorded as “failed”.

“MTDRYIAFANSPVGRRLVGAVGLPSPLRLERWQAGRVRPVDGPLVIGGSGALAEAVLPFAGKLTDAVFAAVDGQFELPRWTAEHSPRAKAVLFDASGLTRFEQLVALRDFFQPVLKGLDKCPKVVVLGRPPESLKDPVTASVQRSLEGFTRSLGKEIRRGGNVQLLYVGKGAEDQLEGALRFFLSPKSAYVSGQVIRLAANSAQVHDWSKPLAGQRALVTGAARGIGAAIAETLARDGAEVVLLDVPPAREALEGLAARLGGRAVALDICAADAGQQLVEALPEGVDIVVHNAGITRDKTLAKMSSDFWNSVINVNLNAPQVLTQALLDGGKLHDNGRVVLLASISGIAGNLGQSNYAVSKAGLIGLAQAWAPALGKRGITINAVAPGFIETQMTAAIPLTIREAGRRMNSMSQGGLPQDVAETVAWFAQPSSGAVSGQVLRVCGQSLLGA”: the protein production entry was “failed”.

Regarding “MTDVEKPVDNSGTLIDDILSPLKGVNEDLNVLVLGGDKVNNNTDTMMLVNFKPSTSKVSILSIPRDTKVKINGKKAKINSAYPTGGGELAVQTVSELFGIDVKYYVFVDTSSFRKIIDILGGVDYYVPVDMDYDDPLQGLSIHIKKGQHHFDGAMAEKFMRFRQYNNGRVNEYYDGSDLKRIDAQQNFIRELVRQKLNIFYLTKVDDIASTIFSNIDTNLNMSEVLKLTGSVSKVQADSINMLKVPGKSVLDGAWYYVIDSQETDKIINEYFRTRYKLEHHHHHH”, the protein production result is reported as “not failed”.

For the sequence “MTEAMIRKKPGMASVKDMPLLQDGPPPGGFAPVRYARRISNTGPSAMAIFLTVSGAFAWGMYQVGQGNKIRRALKEEKYAARRAILPILQAEEDERFVSEWKKYLEYEADVMKDVPGWKVGENVYNSGRWMPPATGELRPDVW”, the protein production result was “failed”.

For the sequence “MTEFTTLLQQGNAWFFIPSAILLGALHGLEPGHSKTMMAAFIIAIKGTIKQAVMLGLAATISHTAVVWLIAFGGMVISKRFTAQSAEPWLQLISAVIIISTAFWMFWRTWRGERNWLENMHGHDYEHHHHDHEHHHDHGHHHHHEHGEYQDAHARAHANDIKRRFDGREVTNWQILLFGLTGGLIPCPAAITVLLICIQLKALTLGATLVVSFSIGLALTLVTVGVGAAISVQQVAKRWSGFNTLAKRAPYFSSLLIGLVGVYMGVHGFMGIMR”, the protein production result is on record as “failed”.

For “MTEGRVIDVDVSSEMESSFLEYAVSVIHSRALPDARDGLKPVQRRIVYQMGDMGLRPERGHVKSSRIVGDVMGKLHPHGDTAIYDALVRLSQSFIMRVPLVDGHGNFGSLDDGPAAPRYTEARLTSASMQMIAGLDEDVVDFVGNYDNTLTQPEVLPSAFPNLLINGTSGIAVGMATNMAPHNPGEVIAACCHLIRNPEAGLAELMRFIPGPDLPTGGRIIGLDGVREAYETGRGTFRTRATVSIENINARRKGIVVTELPYLVGPEKVVSKVKDAVGAKKLTGIASIDDYSDRKNGMRLVIGIKNGFNPEAVLAELYRQTPLEESFSMNNVCLVDGQPRTLGLRELLTVYLAHRIDVIRRRTVFQLRKAKDRLHLVEGLLIAILDIDEVIQLIRSSDDAATARTRLMDVFELSELQATYILDLQLRRLTKFSRIELEAERDELRKKIAYLEDLLADEAKLRELVATELEATAEAIGSPRRTVLIEGSMKELSAKGKKAQADLKIADAPCRVLLSTSGRIARTADASPLQRVGKRSSHDALRSEIVSTTQGKVGAVTSTGRLHMVDVVDLPALPPAATRPNVAGGVKIADYVTLEKNETVLGLIDLDREFVLGTAGGVVKRVSVAARPNKSEWEAITLKGKDSVIGVAQPKDIDESLAVFVTSNAQLLAFDASGLRAQGWNASGVAGMKVAADARALFFGMTPKAAKTDEEGDADTNIGTFAVVTVASGENFYGAPSSSIKVSDFSEYPTKGRATSGVRAHKFLKGETELSLAWVGDSPQAAAQAGGARTLPAEMSRRDATGSPLESKIDVIGTVPRLGDAEAALSGGGAGAGDSGAAGTDASGDGGAASGGGSSSSAATRTQGLATNFGELDLDLDGGPDLDEAKEEIARSKIDSDDAVIVSHDDDDDDDTALF”, the protein production result is “failed”.

On to “MTEIERKFLVATFPDGELHAVPLRQGYLTTPTDSIELRLRQQGTEYFMTLKSEGGLSRQEYEIQIDVTQFEMLWPATEGRRVEKTRYSGKLPDGQLFELDVFAGHLSPLMLVEVEFLSEDAAQAFIPPPWFGEEVTEDKRYKNKALALSIP”, for which the protein production entry is “not failed”.

As for “MTEKKIDFKKEEKKFYAPKRKPERIFVPEMNFLMVDGKGDPDGEEYQKAVQSLYAIAYTIKMSKMGETRLDGYSDFVVPPLEGFWWSEGKFDLKDRDAWLWTSILRQPDFVTEEVLEWAKEVARKKKPDV”, the protein production entry is reported as “failed”.

As for “MTEKRRRLPRPEKAILWPASYLHHRSVTQQLPIMSTPHTDFFGLTIPFMQLLGVVPEHSGNGTARTRLPARADLVNSRGDIHGGTLMSVLDFTLGAAIRGDTPEVGVATIDMNTSFMSPGRGDLVIETRCLRRGASIAFCEGEIRDSAGELVAKATATFKIIQRRPGGD”, the protein production entry is given as “failed”.

As to “MTENTSSFPRSSGELHEFTRADVWGGFTQLLPLSFFVVVFGLAFGVAAVQTGLDAFPTLLMSTLVFAGASQFATLEMWGAEVPLVPVLITVFAINARHLLMGATLYPWLRQLPPHKRYGIMLLASDANWAMAMNAFGKKEPGFGLLVGGGLALWGFWIVGTWMGIYFGGAIKDPVSLGLDMVMGCFLLSMVAGGPKNLRIFAIWGMAAASSLMAYWYLPENSHVVVGAIAGGILGACWKEKKA”, the protein production entry was “failed”.

In the case of “MTEPCRIIGVLDNGAEGLTPQALAYLHAADLVIGAGRTLALFEAHLAEGAECRDLGGRLAQVPDWIAEARRNGKRVAVLATGDPLCHGIAGYLGNKLGREALEILPNVSTIQLACARLGLPWQDMAIGSVHSRDAGDWTPGAGPGHGLYGLLQKLRQADLMGVFTSPENGPDRIARMLRAEGLDEEFEMAIAERLLQADERIHGWLGIAEAAGQCFADPNVVLLRRRPCEREALFGLPDTRFRQRAPDKGLITKREVRAVSLARLALRPDSIVWDIGAGSGAVGLEAARLCPLGHVYAIEKNVEDFAIALSNRESLRVSNYTLVQAKAPRELDGWPDPHGVFIGGSGGELRELIQICLRRLRTGGWLVMNFATLENLAAAVDALKASGASWDVTQLQAARSRPILDMHRLQAENPVWIVCAQRENNE”, the protein production result is recorded as “failed”.

For the sequence “MTEQDIYKLLADGERVTLECKKAQNGVPNSLWETYSAFANTNGGILLLGVYENVAEKDSLMRFTITGVEDADKIRKDLWNTINSREKVNVNLLHDEDVQTISVNGKEVIAINVPRADYNLRPVYINNNLMRGTYRRNHEGDYHCTEQMIKMMVRDAYEDGNDRMFLEYYTMDDIDIPTLEGYRVMFKTNNPEHIWNSLDHKEFLMQLGGYVVNRKDGTEGLTIAGLLMFGKGLPVRERFDYLRMDYIDKSNLIGDQRYSDRLTYDGTWENNLFNFIRMVVPRLTRDIPRPFQMDGIIRKDDTPQHKAVREAFTNMIIHADLMLNGLLRVEKYDDRFVLSNPGLLKLPVEQIYAGGESKARNQRMQHMLRMIGYGENLGSGFPLILSAWNEKHWLKPELVEQPELMQVKLILHIENRVYVTKDVTKDVTKELTERQQIILEFMQADGTITISEMSQKTNVTERTIKRDIESLTEKGILSREGGRKEGRWVIRKILEHHHHHH”, the protein production entry was “not failed”.

Consider “MTERFDCHHCNESLFGKKYILREESPYCVVCFETLFANTCEECGKPIGCDCKDLSYKDRHWHEACFHCSQCRNSLVDKPFAAKEDQLLCTDCYSNEYSSKCQECKKTIMPGTRKMEYKGSSWHETCFICHRCQQPIGTKSFIPKDNQNFCVPCYEKQHAMQCVQCKKPITTGGVTYREQPWHKECFVCTACRKQLSGQRFTARDDFAYCLNCFCDLYAKKCAGCTNPISGLGGTKYISFEERQWHNDCFNCKKCSLSLVGRGFLTERDDILCPDCGKDI”, for which the protein production entry was “failed”.

With “MTEVNLNIYSPRWGRHETYIVELHKDYMEISMGAVTIKATYSENQDPEWSEETLQDIMNNDSVYPPEITQNLFQHAWLEWRKGALDNDEVTRELELVAQWVNKVTEAKPNSDFWRKYF”, the protein production result is recorded as “not failed”.

Consider “MTFASPDDVIRRFDEQNYLLDTGTASAIYLAVTLGRPLLLEGEPGVGKTTAAKTLAVVLDTTLIRLQCYEGLTANEALYDWNYQRQLLSIRLAEARGKGISDISEADLYTEAYLVDRPILRCVRHRGPTPPVLLIDEIDRADDEFEALLLEFLGESAVTVPELGTFLAECPPIAVLTSNRSRDLHDALRRRCLYHWIDYPEPDRAAAIVRRTVPGATAPLIENATQFVCTARDLDLDKPPGVAETIDWVAALVALGVADLTAADSSPALASLGALAKTPDDRTQIRDAYQAFTECSHA”, for which the protein production result is “failed”.

With “MTFFIFLLACSAAAATGIIFKPGAWYESLQKPAFTPPNWAFPVAWTTIYLLLAWAGYRLTLLPGSQTVLALWAAQIALNTLWTPVFFGANRIAAAMVILALLWIVVATMIVMALQLDIITGLILFPYLVWLSVAAALNFSILRHNR”, the protein production result is recorded as “failed”.
